Data from article PMC11648230, “Structure–function analysis of tRNA t^6A-catalysis, assembly, and thermostability of Aquifex aeolicus TsaD2B2 tetramer in complex with TsaE” (The Journal of Biological Chemistry, 2024).
Blank lines part the entries; values can stand above or below the binder they belong to.

Legend:
[1] = target: the molecule itself; test: SEC; co-purified TsaD–TsaB complexes and variants; elution profiles compared with one another (tetramer against dimer); Superdex 200, after Ni-NTA
[2] = target: T1, Thermotoga maritima TsaDB dimer variant (Thermotoga maritima, UniProt Q9WXZ2 1-327; Q9WZX7 2-206, E20A | D21A | L22A | E24A | S26A | Y27A | T28A | E30A | K31A); test: native gel or EMSA; native agarose-glycine gel (1.6%), 15 μg TsaD2B2 or variant and two-fold TsaE; gel and samples with 1 mM ATP and 2 mM MgCl2; conditions: both partners purified
T1 construct: TsaD, Thermotoga maritima, UniProt Q9WXZ2; TsaB, Thermotoga maritima, UniProt Q9WZX7; Preformed complex of m11 and m13; also called T. maritima TsaDB; TmTsaDB; source: E. coli BL21 (DE3) or Rosetta pLysS, co-expressed, purified (Ni-NTA, SEC); copies: 1 + 1
T1 sequence (Q9WXZ2 whole entry, stated change not applied, one chain of several): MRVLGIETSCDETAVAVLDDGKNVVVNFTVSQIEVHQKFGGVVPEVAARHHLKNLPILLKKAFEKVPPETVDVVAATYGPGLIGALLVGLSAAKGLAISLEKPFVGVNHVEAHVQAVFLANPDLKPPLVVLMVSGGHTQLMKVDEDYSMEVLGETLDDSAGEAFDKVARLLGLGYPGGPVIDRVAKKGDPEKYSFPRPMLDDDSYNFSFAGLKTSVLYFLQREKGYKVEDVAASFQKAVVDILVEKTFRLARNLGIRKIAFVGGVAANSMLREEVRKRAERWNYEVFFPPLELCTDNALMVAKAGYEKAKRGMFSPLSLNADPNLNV

B1: Thermotoga maritima TsaB (natural protein)
chain: NVLALDTSQRIRIGLRKGEDLFEISYTGEKKHAEILPVVVKKLLDELDLKVKDLDVVGVGIGPGGLTGLRVGIATVVGLVSPYDIPVAPLNSFEMTAKSCPADGVVLVARRARKGYHYCAVYLKDKGLNPLKEPSVVSDEELEEITKEFSPKIVLKDDLLISPAVLVEESERLFREKKTIHYYEIEPLYLQKSIAELNWEKKKRG
notes: TsaB, Thermotoga maritima, UniProt Q9WZX7; also called TmTsaB; source: E. coli BL21 (DE3) or Rosetta pLysS, co-expressed with TsaD (pET21a–BC14), purified (Ni-NTA, SEC)
binding result [1]: binds

binding result [2]: binds
B2: Aquifex aeolicus TsaE (enzyme, UniProt O67011 1-133, looked up)
chain: MELLKEVILESEEDTYKLAEEIAQLLKGSEVICLRGTLGAGKTTFVKALAKALKVKNPSAVRSPTFTLVNEYETDKGKLIHIDLYRVPDFDYSEFIGEGILAVEWEERDKPCDIILEIEILDENKRKVRIYRK
notes: TsaE, Aquifex aeolicus, UniProt O67011; Monomer by SEC; also called AaTsaE; YjeE; source: E. coli BL21 (DE3) or Rosetta pLysS, purified (Ni-NTA, SEC)
